How the values were obtained:
HeLa Kyoto [1] = assay: melting temperature (median over replicates), in situ; higher = more thermally stable
HeLa Kyoto [2] = assay: thermal stability score vs G1/S (z-score of summed log2 fold changes over temperatures); higher = more thermally stable than in G1/S
HeLa Kyoto [3] = assay: solubility change mitosis vs G1/S (difference of NP-40 vs SDS log2 ratios) (log2 ratio difference); higher = more soluble in mitosis
HeLa Kyoto [4] = assay: solubility in G1/S (NP-40 vs SDS abundance) (log2 ratio); higher = more soluble; conditions: cell cycle stage: G1/S
[5] = cell cycle stage: early G1 (4.5 h after nocodazole release)
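For melting temperature (median over replicates), in situ in this document: HeLa Kyoto cells synchronized by double thymidine or nocodazole block, proteins quantified by TMT10plex mass spectrometry, three independent biological replicates.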
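For solubility change mitosis vs G1/S (difference of NP-40 vs SDS log2 ratios) in this document: synchronized HeLa Kyoto cells (double thymidine block for G1/S, nocodazole release for mitosis), protein amounts in NP-40 versus SDS lysates quantified by mass spectrometry, three biological replicates.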
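For solubility in G1/S (NP-40 vs SDS abundance) in this document: HeLa Kyoto cells arrested at G1/S by double thymidine block, proteins quantified by TMT10plex mass spectrometry in mild NP-40 versus SDS extracts, three biological replicates.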
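For thermal stability score vs G1/S (z-score of summed log2 fold changes over temperatures) in this document: synchronized HeLa Kyoto cells, proteins quantified by TMT10plex mass spectrometry, three biological replicates, mitosis taken 0.5 h after nocodazole release, G1/S directly after double thymidine block.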

Substance	melting temperature (HeLa Kyoto [1]; cell cycle stage: G1/S) [°C]	melting temperature (HeLa Kyoto [1]; cell cycle stage: mitosis) [°C]	thermal stability score (HeLa Kyoto [2]; [5])	thermal stability score (HeLa Kyoto [2]; cell cycle stage: mitosis)	solubility change mitosis (log2) (HeLa Kyoto [3])	solubility in G1/S (log2) (HeLa Kyoto [4])
MLSSCVRPVPTTVRFVDSLICNSSRSFMDLKALLSSLNDFASLSFAESWDNVGLLVEPSPPHTVNTLFLTNDLTEEVMEEVLQKKADLILSYHPPIFRPMKRITWNTWKERLVIRALENRVGIYSPHTAYDAAPQGVNNWLAKGLGACTSRPIHPSKAPNYPTEGNHRVEFNVNYTQDLDKVMSAVKGIDGVSVTSFSARTGNEEQTRINLNCTQKALMQVVDFLSRNKQLYQKTEILSLEKPLLLHTGMGRLCTLDESVSLATMIDRIKRHLKLSHIRLALGVGRTLESQVKVVALCAGSGSSVLQGVEADLYLTGEMSHHDTLDAASQGINVILCEHSNTERGFLSDLRDMLDSHLENKINIILSETDRDPLQVV [NIF3L1]	60.8	60.7	-0.711	-0.332	-0.161	0.187
MLRWLRDFVLPTAACQDAEQPTRYETLFQALDRNGDGVVDIGELQEGLRNLGIPLGQDAEEKIFTTGDVNKDGKLDFEEFMKYLKDHEKKMKLAFKSLDKNNDGKIEASEIVQSLQTLGLTISEQQAELILQSIDVDGTMTVDWNEWRDYFLFNPVTDIEEIIRFWKHSTGIDIGDSLTIPDEFTEDEKKSGQWWRQLLAGGIAGAVSRTSTAPLDRLKIMMQVHGSKSDKMNIFGGFRQMVKEGGIRSLWRGNGTNVIKIAPETAVKFWAYEQYKKLLTEEGQKIGTFERFISGSMAGATAQTFIYPMEVMKTRLAVGKTGQYSGIYDCAKKILKHEGLGAFYKGYVPNLLGIIPYAGIDLAVYELLKSYWLDNFAKDSVNPGVMVLLGCGALSSTCGQLASYPLALVRTRMQAQAMLEGSPQLNMVGLFRRIISKEGIPGLYRGITPNFMKVLPAVGISYVVYENMKQTLGVTQK [SLC25A24]	56.8	57.8	-1.13	-0.922	-0.0619	0.296
MAEFTSYKETASSRHLRFKLQSLSRRLDELEEATKNLQKAEDELLDLQDKVIQAEGSNSSMLAEIEVLRQRVLRIEGKDEEIKRAEDLCRLMKEKLEEEENLTRELKSEIERLQKRMAELEKLEEAFSRSKNDCTQLCLSLNEERNLTKKISSELEMLRVKVKELESSEDRLDKTEQSLASELEKLKSLTLSFVSERKYLNEKEKENEKLIKELTQKLEQNKKMNRDYTRNASNLERNDLRIEDGISSTLPSKESRRKGGLDYLKQVENETRNKSENEKNRNQEDNKVKDLNQEIEKLKTQIKHFESLEEELKKMKSKNNDLQDNYLSEQNKNKLLASQLEEIKLQIKKQKELENGEVEGEDAFLSSKGRHERTKFRGHGSEASVSKHTARELSPQHKRERLRNREFALNNENYSLSNRQVSSPSFTNRRAAKASHMGVSTDSGTQETKKTEDRFVPGSSQSEGKKSREQPSVLSRYPPAAQEHSKAWKGTSKPGTESGLKGKVEKTTRTFSDTTHGSVPSDPLGRADKASDTSSETVFGKRGHVLGNGSQVTQAANSGCSKAIGALASSRRSSSEGLSKGKKAANGLEADNSCPNSKAPVLSKYPYSCRSQENILQGFSTSHKEGVNQPAAVVMEDSSPHEALRCRVIKSSGREKPDSDDDLDIASLVTAKLVNTTITPEPEPKPQPNSREKAKTRGAPRTSLFENDKDAGMENESVKSVRASTNTMELPDTNGAGVKSQRPFSPREALRSRAIIKPVIVDKDVKKIMGGSGTETTLEKQKPVSKPGPNKVTSSITIYPSDSSSPRAAPGEALRERHTSTSNIQVGLAELTSVSNHVSSPFELSIHKHDITLQLAEAERMADGPLKDRPETVVSRSSIIIKPSDPVERNSHAPPAETIRWKSHSAPSEVGFSDARHVTVRNAWKSRRDLKSLEDPPTRIGKNVESTNSNAYTQRSSTDFSELEQPRSCLFEQGTRRVGPSSGDAPEPSSRRTQSSLTVSEVLTRRNRVGDTITVAAWNHSASMEEEGEDCTLSVYRQLHNSLDPSELPGKQGLPESGRVRAEERLRPTRPCAEEN [LUZP1]	51.8	52.3	0.392	0.722	0.14	-0.781
MMTSVGTNRARGNWEQPQNQNQTQHKQRPQATAEQIRLAQMISDHNDADFEEKVKQLIDITGKNQDECVIALHDCNGDVNRAINVLLEGNPDTHSWEMVGKKKGVSGQKDGGQTESNEEGKENRDRDRDYSRRRGGPPRRGRGASRGREFRGQENGLDGTKSGGPSGRGTERGRRGRGRGRGGSGRRGGRFSAQGMGTFNPADYAEPANTDDNYGNSSGNTWNNTGHFEPDDGTSAWRTATEEWGTEDWNEDLSETKIFTASNVSSVPLPAENVTITAGQRIDLAVLLGKTPSTMENDSSNLDPSQAPSLAQPLVFSNSKQTAISQPASGNTFSHHSMVSMLGKGFGDVGEAKGGSTTGSQFLEQFKTAQALAQLAAQHSQSGSTTTSSWDMGSTTQSPSLVQYDLKNPSDSAVHSPFTKRQAFTPSSTMMEVFLQEKSPAVATSTAAPPPPSSPLPSKSTSAPQMSPGSSDNQSSSPQPAQQKLKQQKKKASLTSKIPALAVEMPGSADISGLNLQFGALQFGSEPVLSDYESTPTTSASSSQAPSSLYTSTASESSSTISSNQSQESGYQSGPIQSTTYTSQNNAQGPLYEQRSTQTRRYPSSISSSPQKDLTQAKNGFSSVQATQLQTTQSVEGATGSAVKSDSPSTSSIPPLNETVSAASLLTTTNQHSSSLGGLSHSEEIPNTTTTQHSSTLSTQQNTLSSSTSSGRTSTSTLLHTSVESEANLHSSSSTFSTTSSTVSAPPPVVSVSSSLNSGSSLGLSLGSNSTVTASTRSSVATTSGKAPPNLPPGVPPLLPNPYIMAPGLLHAYPPQVYGYDDLQMLQTRFPLDYYSIPFPTPTTPLTGRDGSLASNPYSGDLTKFGRGDASSPAPATTLAQPQQNQTQTHHTTQQTFLNPALPPGYSYTSLPYYTGVPGLPSTFQYGPAVFPVAPTSSKQHGVNVSVNASATPFQQPSGYGSHGYNTGVSVTSSNTGVPDISGSVYSKTQQSFEKQGFHSGTPAASFNLPSALGSGGPINPATAAAYPPAPFMHILTPHQQPHSQILHHHLQQDGQTGSGQRSQTSSIPQKPQTNKSAYNSYSWGAN [UBAP2L]	55.5	54.2	-3.92	-3.52	0.0243	-0.0783
MSYIPGQPVTAVVQRVEIHKLRQGENLILGFSIGGGIDQDPSQNPFSEDKTDKGIYVTRVSEGGPAEIAGLQIGDKIMQVNGWDMTMVTHDQARKRLTKRSEEVVRLLVTRQSLQKAVQQSMLS [TAX1BP3]	49.1	49.2	1.74	1.25	0.0294	0.277
MDIRPNHTIYINNMNDKIKKEELKRSLYALFSQFGHVVDIVALKTMKMRGQAFVIFKELGSSTNALRQLQGFPFYGKPMRIQYAKTDSDIISKMRGTFADKEKKKEKKKAKTVEQTATTTNKKPGQGTPNSANTQGNSTPNPQVPDYPPNYILFLNNLPEETNEMMLSMLFNQFPGFKEVRLVPGRHDIAFVEFENDGQAGAARDALQGFKITPSHAMKITYAKK [SNRPB2]	54.2	53.2	-2.85	-4.3	0.472	0.221
MPKKAKPTGSGKEEGPAPCKQMKLEAAGGPSALNFDSPSSLFESLISPIKTETFFKEFWEQKPLLIQRDDPALATYYGSLFKLTDLKSLCSRGMYYGRDVNVCRCVNGKKKVLNKDGKAHFLQLRKDFDQKRATIQFHQPQRFKDELWRIQEKLECYFGSLVGSNVYITPAGSQGLPPHYDDVEVFILQLEGEKHWRLYHPTVPLAREYSVEAEERIGRPVHEFMLKPGDLLYFPRGTIHQADTPAGLAHSTHVTISTYQNNSWGDFLLDTISGLVFDTAKEDVELRTGIPRQLLLQVESTTVATRRLSGFLRTLADRLEGTKELLSSDMKKDFIMHRLPPYSAGDGAELSTPGGKLPRLDSVVRLQFKDHIVLTVLPDQDQSDEAQEKMVYIYHSLKNSRETHMMGNEEETEFHGLRFPLSHLDALKQIWNSPAISVKDLKLTTDEEKESLVLSLWTECLIQVV [MINA]	53.4	51.4	3.05	0.952	-0.0273	-0.11
MSSTQFNKGPSYGLSAEVKNRLLSKYDPQKEAELRTWIEGLTGLSIGPDFQKGLKDGTILCTLMNKLQPGSVPKINRSMQNWHQLENLSNFIKAMVSYGMNPVDLFEANDLFESGNMTQVQVSLLALAGKAKTKGLQSGVDIGVKYSEKQERNFDDATMKAGQCVIGLQMGTNKCASQSGMTAYGTRRHLYDPKNHILPPMDHSTISLQMGTNKCASQVGMTAPGTRRHIYDTKLGTDKCDNSSMSLQMGYTQGANQSGQVFGLGRQIYDPKYCPQGTVADGAPSGTGDCPDPGEVPEYPPYYQEEAGY [CNN2]	48.8	50.3	1.28	1.97	-0.0021	0.456
MSSGAPQKSSPMASGAEETPGFLDTLLQDFPALLNPEDPLPWKAPGTVLSQEEVEGELAELAMGFLGSRKAPPPLAAALAHEAVSQLLQTDLSEFRKLPREEEEEEEDDDEEEKAPVTLLDAQSLAQSFFNRLWEVAGQWQKQVPLAARASQRQWLVSIHAIRNTRRKMEDRHVSLPSFNQLFGLSDPVNRAYFAVFDGHGGVDAARYAAVHVHTNAARQPELPTDPEGALREAFRRTDQMFLRKAKRERLQSGTTGVCALIAGATLHVAWLGDSQVILVQQGQVVKLMEPHRPERQDEKARIEALGGFVSHMDCWRVNGTLAVSRAIGDVFQKPYVSGEADAASRALTGSEDYLLLACDGFFDVVPHQEVVGLVQSHLTRQQGSGLRVAEELVAAARERGSHDNITVMVVFLRDPQELLEGGNQGEGDPQAEGRRQDLPSSLPEPETQAPPRS [PPM1F]	51.8	52.7	-0.813	-0.95	-0.0364	0.464
MSVLLRSGLGPLCAVARAAIPFIWRGKYFSSGNEPAENPVTPMLRHLMYKIKSTGPITVAEYMKEVLTNPAKGYYVYRDMLGEKGDFITSPEISQIFGELLGIWFISEWMATGKSTAFQLVELGPGRGTLVGDILRVFTQLGSVLKNCDISVHLVEVSQKLSEIQALTLTKEKVPLERNAGSPVYMKGVTKSGIPISWYRDLHDVPKGYSFYLAHEFFDVLPVHKFQKTPQGWREVFVDIDPQVSDKLRFVLAPSATPAEAFIQHDETRDHVEVCPDAGVIIEELSQRIALTGGAALVADYGHDGTKTDTFRGFCDHKLHDVLIAPGTADLTADVDFSYLRRMAQGKVASLGPIKQHTFLKNMGIDVRLKVLLDKSNEPSVRQQLLQGYDMLMNPKKMGERFNFFALLPHQRLQGGRYQRNARQSKPFASVVAGFSELAWQ [NDUFAF7]	49.2	49	0.103	1.08	-0.162	0.278
CDC42BPA	49.8	50.3	-0.472	0.207	-0.0814	-0.143
MALLPRALSAGAGPSWRRAARAFRGFLLLLPEPAALTRALSRAMACRQEPQPQGPPPAAGAVASYDYLVIGGGSGGLASARRAAELGARAAVVESHKLGGTCVNVGCVPKKVMWNTAVHSEFMHDHADYGFPSCEGKFNWRVIKEKRDAYVSRLNAIYQNNLTKSHIEIIRGHAAFTSDPKPTIEVSGKKYTAPHILIATGGMPSTPHESQIPGASLGITSDGFFQLEELPGRSVIVGAGYIAVEMAGILSALGSKTSLMIRHDKVLRSFDSMISTNCTEELENAGVEVLKFSQVKEVKKTLSGLEVSMVTAVPGRLPVMTMIPDVDCLLWAIGRVPNTKDLSLNKLGIQTDDKGHIIVDEFQNTNVKGIYAVGDVCGKALLTPVAIAAGRKLAHRLFEYKEDSKLDYNNIPTVVFSHPPIGTVGLTEDEAIHKYGIENVKTYSTSFTPMYHAVTKRKTKCVMKMVCANKEEKVVGIHMQGLGCDEMLQGFAVAVKMGATKADFDNTVAIHPTSSEELVTLR [GSR]	58.8	59.7	-1.7	-2.29	-0.09	0.127
